Data on 6 molecules can be found in patent publication US20210261685A1 (Alector, published 2021).

The Kd is the equilibrium constant for the complex coming apart. By IC50 is commonly meant the concentration needed to halve the response being measured.

The target in assay [1] is T1, murine MerTK extracellular domain (ECD), recombinant (mouse, UniProt Q60805 19-497).
T1 construct: also called moMerTK; mouse MerTK; not shown: polyHis tag or TEVS/Thrombin/murine IgG2a Fc tag
T1 sequence: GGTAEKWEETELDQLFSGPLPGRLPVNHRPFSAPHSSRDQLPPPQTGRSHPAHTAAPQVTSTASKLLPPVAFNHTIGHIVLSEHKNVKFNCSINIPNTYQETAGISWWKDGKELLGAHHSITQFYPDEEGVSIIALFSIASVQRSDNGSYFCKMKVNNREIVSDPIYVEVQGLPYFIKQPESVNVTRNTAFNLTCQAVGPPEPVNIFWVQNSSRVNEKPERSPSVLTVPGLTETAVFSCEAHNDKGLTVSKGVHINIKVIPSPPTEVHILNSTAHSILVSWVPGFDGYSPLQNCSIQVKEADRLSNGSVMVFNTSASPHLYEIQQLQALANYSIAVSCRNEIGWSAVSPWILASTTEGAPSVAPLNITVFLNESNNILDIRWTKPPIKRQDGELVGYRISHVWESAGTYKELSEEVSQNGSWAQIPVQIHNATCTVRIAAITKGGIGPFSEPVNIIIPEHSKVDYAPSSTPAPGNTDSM
The assay is described as follows: SPR, Carterra LSA, antibody immobilised. The procedure, abridged: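 Anti-MerTK antibodies diluted to 10 μg/ml in 10 mM Acetate, pH 4.25 were amine-coupled in a 96-spot array onto an HC200M chip activated with MES/sulfo-NHS/EDC, then blocked with 1M Ethanolamine pH 8.5. On a Carterra LSA, recombinant MerTK extracellular domain was injected at 33.3, 100, and 300 nM in HBS-TE with 0.5 mg/ml BSA, lowest to highest without regeneration. KD came from fitted k-on and k-off.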
A general note: SPR reads the build-up and loss of mass on a sensor chip optically.

Assay [2] concerns the target T2, Recombinant human MerTK human Fc Chimera protein (R&D systems, Cat #391-MR-100) (human, UniProt Q12866 26-499, limits assumed).
T2 construct: Bought; also called recombinant human MerTK protein; MerTK-Fc
T2 sequence: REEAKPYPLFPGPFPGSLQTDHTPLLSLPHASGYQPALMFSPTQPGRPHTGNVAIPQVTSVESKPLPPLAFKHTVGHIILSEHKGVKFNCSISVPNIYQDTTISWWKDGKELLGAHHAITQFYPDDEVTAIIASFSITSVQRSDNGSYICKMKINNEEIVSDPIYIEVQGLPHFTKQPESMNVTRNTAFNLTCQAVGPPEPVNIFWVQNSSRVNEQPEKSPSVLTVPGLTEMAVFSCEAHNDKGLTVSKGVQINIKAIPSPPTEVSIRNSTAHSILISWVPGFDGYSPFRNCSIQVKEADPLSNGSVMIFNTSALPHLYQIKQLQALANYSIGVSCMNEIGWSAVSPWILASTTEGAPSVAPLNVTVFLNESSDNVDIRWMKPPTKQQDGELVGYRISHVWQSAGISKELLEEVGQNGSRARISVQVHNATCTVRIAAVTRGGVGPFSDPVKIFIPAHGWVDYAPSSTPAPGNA
As to the kind of experiment: competition ELISA, His-ProS on captured MerTK-Fc. The procedure, abridged: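 MerTK-Fc (2 μg/ml) captured on plate-bound anti-human IgG was exposed to anti-MerTK antibodies (66.6 nM-4 pM final) together with His-Gas6 at 3 μg/ml or His-ProS at 20 μg/ml for 1 h. Bound ligand was detected with HRP-anti-His and TMB. IC50 (nM) was derived from OD450 dose-response curves.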

B1: MTK-32 (antibody, human IgG1, V domains shown)
VH: QIQLVQSGPELKKPGETVKISCKASGYTFTSYGMSWVHQAPGKGLKWLGWINTYSGVPTYADDFRGRFAFSLDTSVSTASLEINNLQNEDTATYFCAREDNWAWFAYWGQGTLVTVST
VL: QIVLSQSPAILSASPGEKVTMTCRATSSVGYMHWYQRKPGSSPKPWIYATSNLASGVPARFSGSGSGTSYSLTISRVEAEDAATYYCQQWSSNPRTFGGGTKLEIK
Take B1: in assay [1], the Kd was found to be 186 nM. Moreover, the 50% inhibitory concentration (IC50) in assay [2] was found to be 2.78 nM.

B2: MTK-14 (antibody, human IgG1, V domains shown)
VH: QIQLVQSGPELKKPGETVKISCKASGYTFTNYGMNWVKQAPGKDLQWMGWINTYTGEPTYADDFTGRFAFSLETSASTAYLQINNLKNEDTATYFCAKGGHYAWFAYWGQGTLVTVSA
VL: QIVLSQSPAILSASPGEKVTMTCRSSSSVSYMHWYQQKPGSSPKPWIYATSNLASGVPGRFSGSGSGTSYSLTISRVEAEDAATYYCQQWGSNPRTFGGGTKLEIK
As for B2, in assay [1], the binding result was “no binding (tested: 300 nM)”. Besides, the IC50 in assay [2] worked out at 7.61 nM.

B3: MTK-36 (antibody, human IgG1, V domains shown)
VH: QVTLKESGPGILQPSQTLSLTCSFSGFSLSTFGMGVGWIRQPSGKGLEWLAHIWWYDDKYYEPALKSRLTISKDSSKNQVFLKIANVDTADTATYYCARIYYGTSYRYFDVWGTGTTVTVSS
VL: QIVLSQSPAILSAFPGEKVTMTCRATSSVRYMHWYQQKPGSSPKPWIYATYNLTSGVPARFSGSGSGTSYSLTISRVEAEDAATYYCHQWSSNPYTFGGGTKLEIK
B3: the binding result in assay [1] is on record as “no binding (tested: 300 nM)”. Further, the 50% inhibitory concentration (IC50) in assay [2] is 1.4 nM.

B4: MTK-08 (antibody, human IgG1, V domains shown)
VH: QIQLVQSGPELKKPGETVKISCKASGYTFTNYGMNWVKQAPGKGLKWMGWINTYTGEPTYADDFKGRFAFSLETSASTAYLQINNLKNEDTATYFCAREVRYWYFDVWGAGTTVTVSS
VL: QIVLSQSPAILSASPGEKVTMTCRATSSVSYMHWFQQKPGSSPKPWIYATSNLASGVPARFSGSGSGTSYSLTISRVEAEDAAAYYCQHWSGNPRTFGGGTKLEIK
For the molecule B4, in assay [1], the binding result is “no binding (tested: 300 nM)”. In addition, the concentration for half-maximal inhibition (IC50) in assay [2] was determined as 3.8 nM.

B5: MTK-02 (antibody, human IgG1, V domains shown)
VH: QIQLVQSGPELKQPGETVKISCKASGYTFTDYGVNWVKQAPGKGLKWMGWINTYSGEPTYAGDFKGRFAFSLESSASTAFLQINNLKNEDMATYFCARRVRYWYFDVWGAGTSVTVSS
VL: QIVLSQSPAILSASPGERVTMTCRANSSVSYMHWYQQKPGSSPKPWIYATSNLASGVPARFSASGSGTSYSLTVSRVEAEDAATYYCQQWGSNPFTFGSGTKLEIK
As for B5, the binding result in assay [1] is reported as “no binding (tested: 300 nM)”. Further, the IC50 in assay [2] amounted to 3.94 nM.

B6: MTK-35 (antibody, human IgG1, V domains shown)
VH: QVLLQQSGPELVKPGASVQLSCKASDYTFTSYDIHWVKQRPGQGLEWIGWIYPRDGYTKYNEIFKGKATLTVDTSSTTAYMELHSLTSEDSAVYFCARAYYTNWYYFDYWGQGTTLTVSS
VL: EIVLTQSPTTMAASPGEKITITCRASSSISSHYLHWYQQKPGFSPKLLIYRTSNLASGVPARFSGSGSGTSYSLTIGTMEAEDVATYYCQQGSTIPLTFGAGTKLVLK
B6: the binding result in assay [1] is listed as “no binding (tested: 300 nM)”. The IC50 in assay [2] was determined as 0.924 nM.
